This is an account of results in patent US20100298213A1, “Pharmaceutically Active Insulin Receptor-Modulating Molecules” (Novo Nordisk A/S, priority 2004, published 2010).

Square brackets hold non-standard residues; d marks the D form. Ends that are not written are not given here. Dip = N[C@H](C(=O)O)C(c1ccccc1)c1ccccc1; Aib = CC(C)(N)C(=O)O

By EC50 is commonly meant the concentration that produces a half-maximal response. Low values mean higher potency in that assay, high ones lower potency in that assay.

Series [1] addresses RIR +11 (rat insulin receptor, B isoform) (Rattus norvegicus, UniProt P15127). Briefly: Binding of IM peptides to IR isoform RIR +11. The following applies: +11 (B) isoform. An excerpt:
(§1) A number of IRBPs (S519; S557; S597; S636; S667; S733; S671; S660; S696; S574; S700; S626; and S726), some of which described in the prior patent documents, were applied to A and B isoforms (−11 and +11 isoforms) of the human, rat, and pig insulin receptors (HIR, RIR, and PIR) using standard methods.

The target of series [2] is HIR +11 (human insulin receptor, B isoform) (Homo sapiens, UniProt P06213). Kind of series: Binding of IM peptides to IR isoform HIR +11. The following applies: +11 (B) isoform.
Text: as §1

In series [3] the test system is mouse adipocytes. Kind of series: Glucose uptake in mouse adipocytes (FFC). In kind it is cell-based. Conditions: for EC50 (FFC) rel. to HI: EC50 value expressed relative to that of human insulin in the same assay; for EC50: concentration needed for half maximal uptake of glucose in mouse adipocytes.
Series [4] relates to pepsin, elastase, chymotrypsin, trypsin, and carboxy-peptidase A. Briefly: Digestion with digestive enzymes (enzymatic stability). In kind it is in vitro ADME. An excerpt: A novel IRBP was derived from S597 by introducing the unusual amino acid residues aminoisobutyric acid and diphenylalanine into the Xaa7 position of the N-terminal Formula 6-like IRBAAS sequence of S597 (in place of Ala) and into the Xaa1 position of the C-terminal Formula 1 sequence (in place of Phe).

In series [5] the target is human IR (HIR) (Homo sapiens, UniProt P06213). Briefly: Human IR affinity (Kd). Format: binding. Conditions: Kd value expressed relative to that of human insulin in the same assay.
The test system of series [6] is PIR −11 (pig insulin receptor, A isoform). Briefly: Binding of IM peptides to IR isoform PIR −11. Conditions: −11 (A) isoform.
Text: as §1

Series [7] deals with HIR −11 (human insulin receptor, A isoform) (Homo sapiens, UniProt P06213). Briefly: Binding of IM peptides to IR isoform HIR −11. Conditions: −11 (A) isoform.
Text: as §1

Series [8] relates to PIR +11 (pig insulin receptor, B isoform). Kind of series: Binding of IM peptides to IR isoform PIR +11. Conditions: +11 (B) isoform.
Text: as §1

The target of series [9] is RIR −11 (rat insulin receptor, A isoform) (Rattus norvegicus, UniProt P15127). Briefly: Binding of IM peptides to IR isoform RIR −11. Conditions: −11 (A) isoform.
Text: as §1

Series [10] deals with wistar rats. Briefly: Blood glucose after administration to wistar rats. In kind it is in vivo, rat. As for the experimental part:
IRBP S667 was and human insulin were administered to wistar rats (S667 at 1.25 nmol/kg; 2.5 nmol/kg; and 5 nmol/kg; human insulin (HI) at 1.25 nmol/kg) using standard techniques, such as are described in the prior patent documents. Glucose measurements were taken 20 minutes prior to administration, at administration, and 20; 40; 60; 80; 120; and 180 minutes after administration. These measurements are compared in FIG. 3.

In series [11] the target is rat insulin receptor isoform with exon 11 (rat) (UniProt P15127). Kind of series: receptor binding, standard methods (FIG. 2).
For series [12], the target named is human insulin receptor isoform with exon 11 (human) (UniProt P06213). Briefly: receptor binding, standard methods (FIG. 2).
The target of series [13] is T1, pig insulin receptor isoform without exon 11 (pig, UniProt F1SCK8 28-746; F1SCK8 751-1370).
T1 construct: also called PIR-11; PIR - 11
T1 sequence (alpha, as listed by the source limits assumed, stated change not applied, form in doubt, chain 1 of 2): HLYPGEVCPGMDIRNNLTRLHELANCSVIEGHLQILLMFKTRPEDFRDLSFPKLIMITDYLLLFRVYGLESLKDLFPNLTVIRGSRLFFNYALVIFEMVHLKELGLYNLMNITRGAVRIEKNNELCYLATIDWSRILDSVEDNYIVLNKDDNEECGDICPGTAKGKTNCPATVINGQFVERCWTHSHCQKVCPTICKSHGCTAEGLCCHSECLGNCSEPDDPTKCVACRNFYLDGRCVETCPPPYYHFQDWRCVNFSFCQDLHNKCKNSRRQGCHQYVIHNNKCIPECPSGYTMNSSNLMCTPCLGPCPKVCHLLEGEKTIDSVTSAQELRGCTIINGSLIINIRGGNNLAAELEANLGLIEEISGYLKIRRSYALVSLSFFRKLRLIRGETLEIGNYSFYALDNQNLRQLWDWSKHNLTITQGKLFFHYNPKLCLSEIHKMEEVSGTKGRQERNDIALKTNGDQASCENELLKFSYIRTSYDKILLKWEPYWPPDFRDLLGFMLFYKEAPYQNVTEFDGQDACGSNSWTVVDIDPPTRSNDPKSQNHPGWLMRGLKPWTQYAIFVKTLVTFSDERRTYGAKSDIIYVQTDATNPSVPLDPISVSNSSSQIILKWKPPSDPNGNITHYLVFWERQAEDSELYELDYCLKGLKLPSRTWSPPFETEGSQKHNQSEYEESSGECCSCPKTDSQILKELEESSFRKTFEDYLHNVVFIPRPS
T1 sequence (beta, as listed by the source limits assumed, stated change not applied, form in doubt, chain 2 of 2): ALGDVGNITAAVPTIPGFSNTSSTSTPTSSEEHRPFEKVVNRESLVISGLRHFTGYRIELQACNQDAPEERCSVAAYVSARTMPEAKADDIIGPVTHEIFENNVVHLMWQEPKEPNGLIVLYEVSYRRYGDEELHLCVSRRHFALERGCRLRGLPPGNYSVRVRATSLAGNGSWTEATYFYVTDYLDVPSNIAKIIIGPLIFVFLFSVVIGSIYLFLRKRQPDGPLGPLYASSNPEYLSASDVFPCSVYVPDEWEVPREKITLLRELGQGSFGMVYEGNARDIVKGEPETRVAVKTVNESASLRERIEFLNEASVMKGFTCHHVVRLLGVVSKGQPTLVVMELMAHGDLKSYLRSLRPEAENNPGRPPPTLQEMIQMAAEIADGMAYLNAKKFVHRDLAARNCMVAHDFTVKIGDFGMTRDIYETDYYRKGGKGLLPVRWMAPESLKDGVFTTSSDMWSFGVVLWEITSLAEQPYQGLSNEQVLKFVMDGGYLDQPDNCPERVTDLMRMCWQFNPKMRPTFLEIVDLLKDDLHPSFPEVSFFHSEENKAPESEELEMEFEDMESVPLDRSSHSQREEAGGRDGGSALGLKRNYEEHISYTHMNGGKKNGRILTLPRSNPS
Kind of series: receptor binding, standard methods (FIG. 2).
Text: as §1

Series [14] has as its target T2, human insulin receptor isoform without exon 11 (human, UniProt P06213-2 28-1370, limits assumed).
T2 construct: also called HIR-11; HIR - 11
Kind of series: receptor binding, standard methods (FIG. 2).
Text: as §1

For series [15], the target named is T3, rat insulin receptor isoform without exon 11 (rat, UniProt P15127-2 27-1371, limits assumed).
T3 construct: also called RIR-11; RIR - 11
T3 sequence (P15127 other isoform, or with tags, fused parts or gaps limits assumed): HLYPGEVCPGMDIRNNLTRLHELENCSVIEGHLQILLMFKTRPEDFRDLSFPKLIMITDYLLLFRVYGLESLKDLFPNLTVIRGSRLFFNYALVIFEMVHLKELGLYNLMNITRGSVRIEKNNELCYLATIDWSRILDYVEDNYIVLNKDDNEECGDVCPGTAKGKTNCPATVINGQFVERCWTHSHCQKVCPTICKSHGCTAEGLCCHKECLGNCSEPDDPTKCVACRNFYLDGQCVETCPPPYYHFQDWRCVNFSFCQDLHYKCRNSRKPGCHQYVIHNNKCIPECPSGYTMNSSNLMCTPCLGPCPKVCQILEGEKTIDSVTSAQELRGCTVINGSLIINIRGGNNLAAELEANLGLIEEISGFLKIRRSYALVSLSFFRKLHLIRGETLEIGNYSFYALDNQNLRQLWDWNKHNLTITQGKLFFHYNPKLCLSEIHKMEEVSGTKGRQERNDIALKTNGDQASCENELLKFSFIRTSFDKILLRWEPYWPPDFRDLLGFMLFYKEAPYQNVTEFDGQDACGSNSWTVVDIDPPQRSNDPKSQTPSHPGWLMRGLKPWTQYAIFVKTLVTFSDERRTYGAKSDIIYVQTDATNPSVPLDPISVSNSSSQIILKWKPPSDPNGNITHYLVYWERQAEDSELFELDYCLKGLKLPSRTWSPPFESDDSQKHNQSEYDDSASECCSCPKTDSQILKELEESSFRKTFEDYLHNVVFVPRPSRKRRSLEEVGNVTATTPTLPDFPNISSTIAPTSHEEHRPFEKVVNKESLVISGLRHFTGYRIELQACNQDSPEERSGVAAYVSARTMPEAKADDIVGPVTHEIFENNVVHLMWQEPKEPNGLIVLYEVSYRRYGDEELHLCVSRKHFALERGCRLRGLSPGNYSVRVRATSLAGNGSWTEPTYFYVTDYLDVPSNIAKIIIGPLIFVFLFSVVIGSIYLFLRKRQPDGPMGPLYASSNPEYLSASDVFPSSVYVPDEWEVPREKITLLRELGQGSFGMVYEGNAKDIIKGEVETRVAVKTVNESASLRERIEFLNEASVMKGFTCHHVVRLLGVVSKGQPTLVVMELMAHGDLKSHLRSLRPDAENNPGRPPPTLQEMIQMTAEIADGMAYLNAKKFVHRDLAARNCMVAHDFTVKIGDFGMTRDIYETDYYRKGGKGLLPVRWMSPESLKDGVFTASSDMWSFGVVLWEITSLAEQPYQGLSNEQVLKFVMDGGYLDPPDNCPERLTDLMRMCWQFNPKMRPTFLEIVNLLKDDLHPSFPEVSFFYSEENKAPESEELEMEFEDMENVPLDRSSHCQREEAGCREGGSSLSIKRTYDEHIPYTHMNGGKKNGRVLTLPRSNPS
Kind of series: receptor binding, standard methods (FIG. 2).
Text: as §1

Series [16] concerns the target insulin receptor on mouse adipocytes (mouse, UniProt P15208 28-1372). Briefly: cell-based or functional assay.
The target of series [17] is T4, pig insulin receptor isoform with exon 11 (pig, UniProt F1SCL0 28-758; F1SCL0 763-1382).
T4 construct: also called PIR+11; PIR + 11
T4 sequence (alpha, as listed by the source limits assumed, stated change not applied, form in doubt, chain 1 of 2): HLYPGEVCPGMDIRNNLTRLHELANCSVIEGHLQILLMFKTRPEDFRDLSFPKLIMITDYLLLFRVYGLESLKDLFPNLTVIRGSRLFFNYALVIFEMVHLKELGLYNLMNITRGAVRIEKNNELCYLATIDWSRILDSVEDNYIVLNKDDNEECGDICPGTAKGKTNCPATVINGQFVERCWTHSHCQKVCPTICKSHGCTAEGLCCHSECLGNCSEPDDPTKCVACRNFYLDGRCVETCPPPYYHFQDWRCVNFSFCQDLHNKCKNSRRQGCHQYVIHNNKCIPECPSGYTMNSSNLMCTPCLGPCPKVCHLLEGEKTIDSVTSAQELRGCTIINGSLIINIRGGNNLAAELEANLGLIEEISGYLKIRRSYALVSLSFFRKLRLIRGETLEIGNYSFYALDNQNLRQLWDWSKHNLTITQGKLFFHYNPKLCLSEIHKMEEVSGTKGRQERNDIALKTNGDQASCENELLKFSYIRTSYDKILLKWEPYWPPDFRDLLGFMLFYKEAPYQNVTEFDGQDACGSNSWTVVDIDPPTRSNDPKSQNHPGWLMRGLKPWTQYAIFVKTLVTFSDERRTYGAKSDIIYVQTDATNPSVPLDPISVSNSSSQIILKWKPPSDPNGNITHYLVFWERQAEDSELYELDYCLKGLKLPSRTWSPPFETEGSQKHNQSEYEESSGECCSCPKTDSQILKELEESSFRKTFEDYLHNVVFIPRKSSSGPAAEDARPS
T4 sequence (beta, as listed by the source limits assumed, stated change not applied, form in doubt, chain 2 of 2): as the sequence (beta, as listed by the source limits assumed, stated change not applied, form in doubt, chain 2 of 2) above
Kind of series: receptor binding, standard methods (FIG. 2).
Text: as §1

As to “SLEEEWAQIQCEVWGRGCPSESFYGWFERQLG [compound 733]”, in series [1], the “relative affinity RIR +11” value was 211. For the same molecule, the “relative affinity HIR +11” value in series [2] came out at 290.
For “MeO-PEG5000-SLEEEWAQIECEVYGRGCPSESFYDWFERQL ({MeO‑PEG5000}-SLEEEWAQIECEVYGRGCPSESFYDWFERQL; cysteine pairing not given here) [compound 660]”, in series [1], the “relative affinity RIR +11” value amounted to 9.
Regarding “GSLDESFYDWFERQLG-(pox)2-SLEEEWAQIQCEVWGRGCPSY [compound 675]”, in [3], the “EC50 (FFC) rel. to HI” value amounted to 25% and the midpoint of the response, the EC50, lay at 0.26 nM.
For “SLEEEWAQVECEVYERGCPSESFYDWFERQL [compound 696]”, in series [1], the “relative affinity RIR +11” value is recorded as 0.2. In addition, the “relative affinity HIR +11” value in series [2] came to 3.1.
For the molecule “Ac-SLEEEW-Aib-QIQCEVWGRPCPSEP-Dip-YGWFHEQLGPP (Ac-SLEEEW[Aib]QIQCEVWGRPCPSEP[Dip]YGWFHEQLGPP; cysteine pairing not given here) [compound 873]”, the “stabilization towards all of the relevant enzymes as compared to S597” value in [4] is on record as “greater than 100 fold”. Moreover, in [5], the “Kd (HIR) rel. to HI” value is recorded as 20%.
Consider “Ac-SLE-Aib-EW-Aib-QIQCEVWGRGCPSESFYDWFERQL [compound 663]”, for which, in series [3], the “EC50 (FFC) rel. to HI” value is 15% and the response was half-maximal at 0.43 nM (EC50).
SLEEEWAQIEAEVWGRGAPSESFYDWFERQLG [S574]: in series [1], the “relative affinity RIR +11” value worked out at 2. The “relative affinity HIR +11” value in series [2] is 8.2.
As for “SLEEEWAQIQEEVWGRGEPSESFYDWFERQL [compound 700]”, the “relative affinity PIR −11” value in [6] is 1.4. The “relative affinity HIR −11” value in series [7] worked out at 70. In addition, the “relative affinity RIR +11” value in series [1] came out at 13. In series [8], the “relative affinity PIR +11” value came out at 4.3. The “relative affinity RIR −11” value in series [9] was found to be 10. For the same molecule, the “relative affinity HIR +11” value in [2] worked out at 53.
In the case of “SLEEEWAQIQCEVWGRGCPSESFYGWFERQL [compound 667]”, in series [10] (1.25, 2.5, 5 nmol/kg), the “dose dependence of glucose level modulation” value is listed as “dose-dependent IR-mediated glucose level modulation”. Also, the “blood glucose lowering compared with human insulin” value in series [10] (S667 1.25, 2.5, 5 nmol/kg, HI 1.25 nmol/kg, up to 180 minutes) is given as “lower blood glucose to levels similar to human insulin at similar dosages”. The “relative affinity RIR +11” value in series [1] turned out to be 112. Moreover, the “relative affinity HIR +11” value in series [2] was found to be 127.
Take “SLEEEWAQIECEVWGRGCPSEGFYNAIELLS [compound 726]”: the “relative affinity RIR +11” value in series [1] is 7.7. Also, in series [2], the “relative affinity HIR +11” value worked out at 121.
Take “SLEEEWAQIECEVYGRGCPSVRGFQGGTVWPGYEWLRNAAKK [compound 626]”: the “relative affinity RIR +11” value in series [1] turned out to be 12. Further, in [2], the “relative affinity HIR +11” value was 78.
Taken in the same sequence, the figures for “SLEEEWAQIQCEVWGRGCPSESFYDWFERQL [compound 636]” were 79 and 117.
Regarding Ac-SLEEEWAQIQCEVWGRGCPSESFYDWFERQLG (cysteine pairing not given here) [S671], the relative affinity came out at 65 in [11]; 98 in series [12]; 23 in series [13]; 86 in series [14]; 39 in series [15]. For the same molecule, in series [16], the “EC50 (FFC)” value is 0.1 nM. Moreover, the “EC50 (FFC) rel. to HI” value in series [16] worked out at 65%.
On to SLEEEWAQIEAEVWGRGAPSESFYDWFERQLG [S574], for which the relative affinity in [11] came out at 2; in series [12] it was 8.2; in series [13], 0.2; in series [14], 8.3; in [15], 0.9; in series [17] it was 0.4.
Ac-SLEEEWAQIQCEVWGRGCPSESFYGWFERQLG (cysteine pairing not given here) [S733]: the relative affinity in [11] stood at 211; in [12], 290; in series [13], 111; in series [14], 281; in [15], 179; in series [17] it was 228. For the same molecule, in series [16], the “EC50 (FFC)” value is 0.12 nM. The “EC50 (FFC) rel. to HI” value in [16] stood at 61%.
As to Ac-SLEEEWAQIECEVWGRGCPSEGFYNAIELLS (cysteine pairing not given here) [S726], the relative affinity in [11] was 7.7; in [12], 121; in [13] it was 1.3; in [14], 83; in series [15] it was 13; in series [17] it was 5.9. In addition, the “EC50 (FFC)” value in series [16] is 19 nM. Moreover, in [16], the “EC50 (FFC) rel. to HI” value worked out at 0.3%.
Consider SLEEEWAQIECEVYGRGCPSVRGFQGGTVWPGYEWLRNAAKK [S626], for which the relative affinity in series [11] was determined as 12; in [12], 78; in series [13], 1; in series [14] it was 59; in [15], 11; in series [17] it was 3. The “EC50 (FFC)” value in [16] came out at 9.7 nM. The “EC50 (FFC) rel. to HI” value in [16] came out at 0.4%.
With Ac-SLEEEWAQIQCEVWGRGCPSESFYDWFERQL (cysteine pairing not given here) [S636], the relative affinity in [11] worked out at 79; in [12] it was 117; in series [13] it was 32; in series [14] it was 106; in series [15] it was 50; in [17] it was 68. Also, in series [16], the “EC50 (FFC)” value is 0.056 nM. Besides, the “EC50 (FFC) rel. to HI” value in series [16] was found to be 98%.
In the case of {MeO‑PEG5000}-SLEEEWAQIECEVYGRGCPSESFYDWFERQL (cysteine pairing not given here) [S660], the relative affinity in series [11] was determined as 9; in series [12], 58; in [13], 5.5; in [14], 52; in [15], 6.5; in series [17], 12. In addition, the “EC50 (FFC)” value in series [16] stood at 2 nM. Further, the “EC50 (FFC) rel. to HI” value in [16] came out at 3.3%.
As for SLEEEWAQVECEVYERGCPSESFYDWFERQL [S696], the relative affinity was determined as 0.2 in series [11]; 3.1 in [12]; 0.3 in series [13]; 3.3 in [14]; 0.3 in [15]; 0.8 in series [17]. Moreover, the “EC50 (FFC)” value in [16] amounted to 870 nM.
For the molecule Ac-SLEEEWAQIQCEVWGRGCPSESFYGWFERQL (cysteine pairing not given here) [S667], the relative affinity is 112 in series [11]; 127 in [12]; 47 in series [13]; 111 in [14]; 44 in series [15]; 84 in [17]. Moreover, the “EC50 (FFC)” value in series [16] stood at 0.21 nM. Also, the “EC50 (FFC) rel. to HI” value in [16] was found to be 31%.
